Measurements from IntAct's records for PubMed 21670263.

Assays:
tf2h1_human GTF2H1 = tf2h1_human GTF2H1 (UniProt P32780)
cbp_human CREBBP = cbp_human CREBBP (UniProt Q92793)
cbp_human CREBBP, sequence (Q92793 whole entry, looked up): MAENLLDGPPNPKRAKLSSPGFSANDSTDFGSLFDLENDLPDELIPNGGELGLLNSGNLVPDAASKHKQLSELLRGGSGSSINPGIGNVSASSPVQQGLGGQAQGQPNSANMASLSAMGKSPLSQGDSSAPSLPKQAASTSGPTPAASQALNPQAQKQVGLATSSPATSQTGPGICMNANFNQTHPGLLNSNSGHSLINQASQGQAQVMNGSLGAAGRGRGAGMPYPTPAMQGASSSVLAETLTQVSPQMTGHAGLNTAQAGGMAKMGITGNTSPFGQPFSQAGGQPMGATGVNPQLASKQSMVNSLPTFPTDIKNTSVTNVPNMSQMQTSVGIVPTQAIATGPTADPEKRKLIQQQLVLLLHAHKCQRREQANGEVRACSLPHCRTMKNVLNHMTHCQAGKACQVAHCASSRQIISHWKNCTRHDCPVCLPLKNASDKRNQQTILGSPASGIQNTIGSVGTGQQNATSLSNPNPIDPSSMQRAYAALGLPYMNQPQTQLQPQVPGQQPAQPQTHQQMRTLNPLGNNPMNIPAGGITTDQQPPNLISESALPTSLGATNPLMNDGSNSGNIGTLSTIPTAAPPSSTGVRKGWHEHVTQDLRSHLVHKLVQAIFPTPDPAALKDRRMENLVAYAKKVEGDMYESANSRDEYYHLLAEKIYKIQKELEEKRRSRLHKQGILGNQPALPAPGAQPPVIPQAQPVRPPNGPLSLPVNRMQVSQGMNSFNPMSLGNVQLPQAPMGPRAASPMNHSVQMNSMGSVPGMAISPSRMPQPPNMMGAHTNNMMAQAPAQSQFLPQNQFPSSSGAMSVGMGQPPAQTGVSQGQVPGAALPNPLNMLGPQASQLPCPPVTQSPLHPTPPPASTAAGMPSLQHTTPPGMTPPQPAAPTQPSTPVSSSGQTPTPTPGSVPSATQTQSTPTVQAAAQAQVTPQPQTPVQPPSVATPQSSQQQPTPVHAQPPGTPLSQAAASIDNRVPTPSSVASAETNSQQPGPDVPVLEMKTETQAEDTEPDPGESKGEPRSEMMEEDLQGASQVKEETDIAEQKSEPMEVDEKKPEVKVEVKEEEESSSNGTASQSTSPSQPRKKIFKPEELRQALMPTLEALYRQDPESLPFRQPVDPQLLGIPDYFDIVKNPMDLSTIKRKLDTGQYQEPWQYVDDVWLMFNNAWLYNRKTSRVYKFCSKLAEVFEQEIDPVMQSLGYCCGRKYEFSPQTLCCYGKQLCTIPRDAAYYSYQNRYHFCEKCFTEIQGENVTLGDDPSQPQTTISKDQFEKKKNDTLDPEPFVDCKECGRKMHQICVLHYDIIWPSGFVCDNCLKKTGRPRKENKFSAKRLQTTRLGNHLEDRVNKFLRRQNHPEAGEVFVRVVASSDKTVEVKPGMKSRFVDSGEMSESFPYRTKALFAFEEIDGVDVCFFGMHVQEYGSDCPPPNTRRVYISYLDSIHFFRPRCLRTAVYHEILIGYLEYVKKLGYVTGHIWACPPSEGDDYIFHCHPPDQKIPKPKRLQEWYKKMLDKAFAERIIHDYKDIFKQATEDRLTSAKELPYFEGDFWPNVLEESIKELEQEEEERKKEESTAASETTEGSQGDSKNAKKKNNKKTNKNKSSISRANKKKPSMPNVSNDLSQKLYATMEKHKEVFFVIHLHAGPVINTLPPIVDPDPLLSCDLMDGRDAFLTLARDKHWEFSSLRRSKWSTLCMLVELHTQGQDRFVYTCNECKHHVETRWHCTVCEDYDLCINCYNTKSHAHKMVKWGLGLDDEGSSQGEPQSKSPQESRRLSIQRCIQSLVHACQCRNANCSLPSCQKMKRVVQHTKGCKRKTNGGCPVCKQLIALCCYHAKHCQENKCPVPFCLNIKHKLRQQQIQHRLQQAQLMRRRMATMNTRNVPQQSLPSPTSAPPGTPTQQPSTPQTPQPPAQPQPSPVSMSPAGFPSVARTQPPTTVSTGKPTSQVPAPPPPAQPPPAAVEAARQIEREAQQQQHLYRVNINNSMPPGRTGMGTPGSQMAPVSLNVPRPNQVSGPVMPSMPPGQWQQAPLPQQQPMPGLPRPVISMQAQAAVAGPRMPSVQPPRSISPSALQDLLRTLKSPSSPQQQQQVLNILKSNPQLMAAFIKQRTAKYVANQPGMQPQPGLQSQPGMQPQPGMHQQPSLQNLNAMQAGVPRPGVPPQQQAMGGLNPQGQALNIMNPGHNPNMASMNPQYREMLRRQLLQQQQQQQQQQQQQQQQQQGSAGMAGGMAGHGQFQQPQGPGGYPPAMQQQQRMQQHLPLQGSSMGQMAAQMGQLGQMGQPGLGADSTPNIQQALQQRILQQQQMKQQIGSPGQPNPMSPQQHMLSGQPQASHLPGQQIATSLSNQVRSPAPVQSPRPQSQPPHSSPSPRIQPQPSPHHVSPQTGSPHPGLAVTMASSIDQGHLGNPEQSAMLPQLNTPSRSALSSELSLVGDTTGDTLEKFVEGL

Krueppel-like factor 1 (Homo sapiens), Q13351 W73P, sequence (Q13351 whole entry W73P): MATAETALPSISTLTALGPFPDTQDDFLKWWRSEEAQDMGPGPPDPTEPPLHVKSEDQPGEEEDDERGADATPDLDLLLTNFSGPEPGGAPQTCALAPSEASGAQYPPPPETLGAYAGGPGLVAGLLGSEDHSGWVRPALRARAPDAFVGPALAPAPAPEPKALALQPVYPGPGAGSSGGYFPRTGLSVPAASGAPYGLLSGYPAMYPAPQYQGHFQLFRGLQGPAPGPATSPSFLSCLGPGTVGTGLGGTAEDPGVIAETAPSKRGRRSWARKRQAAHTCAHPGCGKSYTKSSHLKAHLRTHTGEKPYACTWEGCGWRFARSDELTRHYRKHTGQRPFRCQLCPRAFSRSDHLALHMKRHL
tf2h1_human GTF2H1, sequence (P32780 whole entry): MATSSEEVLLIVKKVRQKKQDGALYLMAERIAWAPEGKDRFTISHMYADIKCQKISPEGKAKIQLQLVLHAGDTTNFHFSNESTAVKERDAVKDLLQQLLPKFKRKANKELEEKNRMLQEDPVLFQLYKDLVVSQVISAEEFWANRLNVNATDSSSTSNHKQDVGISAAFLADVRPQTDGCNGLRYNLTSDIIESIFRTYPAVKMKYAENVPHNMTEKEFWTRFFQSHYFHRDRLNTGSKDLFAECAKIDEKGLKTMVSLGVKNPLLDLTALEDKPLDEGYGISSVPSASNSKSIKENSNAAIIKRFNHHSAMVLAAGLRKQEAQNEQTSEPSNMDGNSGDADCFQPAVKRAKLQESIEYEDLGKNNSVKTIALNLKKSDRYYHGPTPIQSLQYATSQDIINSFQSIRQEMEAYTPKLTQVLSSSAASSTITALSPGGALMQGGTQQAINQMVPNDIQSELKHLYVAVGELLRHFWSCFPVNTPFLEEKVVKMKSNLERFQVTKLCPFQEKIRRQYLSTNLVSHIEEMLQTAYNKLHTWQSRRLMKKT

effect of a mutation on the interaction (tf2h1_human GTF2H1): disrupting interaction strength
effect of a mutation on the interaction (cbp_human CREBBP): disrupting interaction strength
Substance: Krueppel-like factor 1 (Homo sapiens), Q13351 W73P
